T1: MHC-I molecule (H-2K^b) on C57BL/6 splenocytes (mouse, UniProt P01887 21-119; P01901 22-369)
T1 sequence (MHC heavy): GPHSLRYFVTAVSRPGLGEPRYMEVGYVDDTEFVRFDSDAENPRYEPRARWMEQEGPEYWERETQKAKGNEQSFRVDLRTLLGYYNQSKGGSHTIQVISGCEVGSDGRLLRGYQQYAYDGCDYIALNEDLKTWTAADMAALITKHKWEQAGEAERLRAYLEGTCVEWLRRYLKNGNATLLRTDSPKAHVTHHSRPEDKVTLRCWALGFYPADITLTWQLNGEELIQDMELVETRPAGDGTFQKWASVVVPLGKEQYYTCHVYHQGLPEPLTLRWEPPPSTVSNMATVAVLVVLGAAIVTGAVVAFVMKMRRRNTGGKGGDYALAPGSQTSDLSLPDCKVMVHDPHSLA
T1 sequence (b2m): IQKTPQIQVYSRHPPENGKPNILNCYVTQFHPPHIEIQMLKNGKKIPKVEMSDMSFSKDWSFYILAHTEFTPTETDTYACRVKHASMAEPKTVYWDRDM


Experiments:
[1] = target: SIINFEKL on MHC-I (H-2K^b) on C57BL/6 splenocytes (mouse; chicken); test: flow cytometry, C57BL/6 splenocytes pulsed 2 h with SIINFEKL and stained with the APC antibody
[2] = target: T1, MHC-I molecule (H-2K^b) on C57BL/6 …; test: cell-based or functional assay

Molecule	% of splenocytes positive [1] [%]	proportion of splenocytes cross-presenting SIINFEKL on MHC-I (flow cytometry with anti-H-2K^b bound to SIINFEKL) [2] [%]
APC anti-mouse H-2K^b bound to SIINFEKL (BioLegend) (antibody)	98.5	
SIINFEKLKKKKKK (amino caproic acid (AHX) residue between SIINFEKL and polyK) [SIINFEKL-AHX-polyK]		1.36
SIINFEKLKKKKKK [SIINFEKL-polyK]		27.1
KKKKKKSIINFEKL [polyK-SIINFEKL]		94.5
